Experimental data taken from patent publication EP1255844B1 (MILLENNIUM PHARMACEUTICALS, INC., dated 2007).
“And” between values parts separate entries of the source, which are not always exact repeats. Equal values may be shown once.

Legend:
[1] = molecular target: T1, human CC-chemokine receptor 2 (CCR2) as naturally expressed on THP-1 cells, THP-1 cell membranes, fresh human … (human, UniProt P41597 1-374); test: competition with 0.1 nM [125I]MCP-1 on THP-1 cell membranes, filtration and scintillation counting
T1 construct: whole, on cells; In one assay membranes of THP-1 cells were used instead of whole cells; also called CKR-2; MCP-1RA
T1 sequence (P41597 whole entry): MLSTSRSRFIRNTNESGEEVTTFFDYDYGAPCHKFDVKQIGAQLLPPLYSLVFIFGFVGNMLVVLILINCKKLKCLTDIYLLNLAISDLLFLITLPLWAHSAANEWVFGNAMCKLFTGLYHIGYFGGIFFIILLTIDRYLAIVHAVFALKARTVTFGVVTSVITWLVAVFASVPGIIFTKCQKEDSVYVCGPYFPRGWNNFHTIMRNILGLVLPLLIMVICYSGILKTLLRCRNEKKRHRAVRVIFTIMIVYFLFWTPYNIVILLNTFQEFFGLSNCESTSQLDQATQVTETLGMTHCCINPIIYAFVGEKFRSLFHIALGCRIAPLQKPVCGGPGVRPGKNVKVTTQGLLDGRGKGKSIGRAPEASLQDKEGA

[2] = molecular target: T1, human CC-chemokine receptor 2 (CCR2) as …; test: competition with 0.1 nM [125I]MCP-1 on fresh human PBMC, filtration and scintillation counting

B1: murine monoclonal antibody LS132.1D9 (1D9) (antibody, V domains shown)
VH: EVQLVESGGGLVQPKGSLKLSCAASGFSFNAYAMNWVRQAPGKGLEWVARIRTKNNNYATYYADSVKDRYTISRDDSESMLFLQMNNLKTEDTAMYYCVTFYGNGVWGTGTTVTVSS
VL: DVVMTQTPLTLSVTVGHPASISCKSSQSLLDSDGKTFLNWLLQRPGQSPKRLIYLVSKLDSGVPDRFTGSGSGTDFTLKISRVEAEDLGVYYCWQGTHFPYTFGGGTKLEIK
notes: Whole mouse monoclonal antibody from a hybridoma (supernatant or antibody); Kappa light chain; The controls are called isotype-matched and murine IgG2a, which implies IgG2a; also called mAb 1D9; mus-1D9
For B1, the IC50 [1] was ~0.004 µg/mL and ~0.02 nM and the IC50 [2] was 0.04 µg/mL and ~0.2 nM.
